The conditions of this series: Geobacillus stearothermophilus, 25 °C, Urea, CD, Sodium phosphate 10 mM, reversible: yes, whole UniProt chain shown.

B1: Large ribosomal subunit protein bL9 wild type, P02417 (protein)
chain: MKVIFLKDVKGKGKKGEIKNVADGYANNFLFKQGLAIEATPANLKALEAQKQKEQRQAAEELANAKKLKEQLEKLTVTIPAKAGEGGRLFGSITSKQIAESLQAQHGLKLDKRKIELADAIRALGYTNVPVKLHPEVTATLKVHVTEQK
For B1, the unfolding free energy (pH 2.4, NaCl 750 mM) stood at 2.9 kcal/mol; the unfolding free energy (pH 2.79, NaCl 100 mM) turned out to be 2.3 kcal/mol; the unfolding free energy (pH 3.15, NaCl 750 mM) was found to be 3.1 kcal/mol; the unfolding free energy (pH 3.55, NaCl 100 mM) was 3 kcal/mol; the unfolding free energy (pH 4.14, NaCl 750 mM) came to 4 kcal/mol; the unfolding free energy (pH 4.51, NaCl 100 mM) amounted to 3.5 kcal/mol. In addition, the unfolding free energy (pH 5.25, NaCl 750 mM) came to 4.8 kcal/mol; the unfolding free energy (pH 5.99, NaCl 100 mM) was 4.4 kcal/mol; the unfolding free energy (pH 6.56, NaCl 750 mM) turned out to be 4.7 kcal/mol; the unfolding free energy (pH 6.98, NaCl 100 mM) was 4.5 kcal/mol; the unfolding free energy (pH 7.26, NaCl 750 mM) amounted to 5.2 kcal/mol.

(Values after FireProtDB (doi:10.1021/bi982931h).)
